In general, Kd refers to the constant that tells how readily two partners part at equilibrium. Low values mean tighter binding, high ones weaker binding.

Our source for the Kd values is publication PMC6480404 (Molecular cell, 2018).

For the test, the target named is Streptococcus pyogenes Cas9 (Streptococcus pyogenes, UniProt Q99ZW2 1-1368). As to the kind of experiment: native gel or EMSA. For orientation: Mobility shift assays separate free from complexed probe on a gel.

B1: AcrIIA4 (natural protein, Listeria monocytogenes prophage, UniProt A0A247D711 1-87, looked up)
chain: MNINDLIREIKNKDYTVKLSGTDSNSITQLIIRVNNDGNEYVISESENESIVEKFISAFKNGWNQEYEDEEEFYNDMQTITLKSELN
In the case of B1, binding was put at a Kd of 78 nM.
